This data set deals with the molecule itself. Nature of the data set: AFM of spontaneously formed aggregates (self-assembly).

This note sets out measurements from US20210302442A1 (MAX DELBR CK CENTRUM F R MOLEKULARE MEDIZIN IN DER …, published 2021).

B1: Ex1Q48 (other)
chain: MATLEKLMKAFESLKSFQQQQQQQQQQQQQQQQQQQQQQQQQQQQQQQQQQQQQQQQQQQQQQQQPPPPPPPPPPPQLPQPPPQAQPLLPQLQPPPPPPPPPPGPAAAEEPLHRP
notes: also called HTTEx1Q48; HTTex1Q48
On to B1, for which the binding result is reported as “binds”.
